According to PMC4908164:
pKd: −log10 of the molar value.

Columns and labels:
[1] = target: Yeast cytochrome c peroxidase C128A with MSKT as the first four N-terminal residues (yeast) (UniProt P00431); assay: paramagnetic relaxation enhancement NMR; intermolecular PRE: 200 uM [15N,2H] CcP WT (C128A) with 200 uM unlabelled MTSL- or MTS-tagged N38C, N200C or T288C CcP; 20 mM NaPi, 100 mM NaCl, pH 6.0, 293 K; fraction bound and KD estimated from PRE-driven ensemble docking with an assumed correlation time of 45 ns
[2] = target: cytochrome c peroxidase (Saccharomyces cerevisiae) (UniProt P00431); details: cited from earlier work

Chain of cytochrome c (P00044 2-109): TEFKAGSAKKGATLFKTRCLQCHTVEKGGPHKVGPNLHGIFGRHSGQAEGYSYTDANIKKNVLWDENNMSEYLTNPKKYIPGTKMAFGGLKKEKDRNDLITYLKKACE

| pKd [1] | fraction bound [1] | Substance | pKd [2] |
| --- | --- | --- | --- |
| 3.44 | 0.4 | Yeast cytochrome c peroxidase C128A N38C tagged with MTSL (or diamagnetic MTS) at C38 (from UniProt P00431 71-361) (enzyme) |  |
| 3.44 | 0.4 | Yeast cytochrome c peroxidase C128A N200C tagged with MTSL (or diamagnetic MTS) at C200 (from UniProt P00431 71-361) (enzyme) |  |
| 3.44 | 0.4 | Yeast cytochrome c peroxidase C128A T288C tagged with MTSL (or diamagnetic MTS) at C288 (from UniProt P00431 71-361) (enzyme) |  |
|  |  | cytochrome c (from UniProt P00044) | 5.30 |
